In patent US7708999B2, “Remedies for arthritis” (Kyowa Hakko Kirin Co., Ltd., priority 2001, dated 2010):

Legend:
rabbit synovial cells = assay: Promotion of growth of rabbit synovial cells with FGF-8 ([3H]thymidine incorporation); assay type: cell-based; settings: FGF-8 1, 10 or 100 ng/mL tested
Experimental: (§1) Rabbit synovial cells were collected by the method of Hamilton et al. (Hamilton J. A. and Slywka J., J. Immunol. 126, 851-855, 1981). The isolated synovial cells were suspended in RPMI 1640 medium comprising 10 vol % FBS (FBS-comprising RPMI 1640 medium is hereinafter referred to as FBS/RPMI 1640), and 10,000 cells was inoculated at each well of a 96-well culture plate. After 24 hours of the culturing, the culture medium of each well was removed, and 200 μL of 0.2 vol % FBS/RPMI 1640 (non-stimulated group) or 0.2 vol % FBS/RPMI 1640 comprising FGF-8 (1, 10 or 100 ng/mL) was added. When the activity of the anti-FGF-8 neutralizing antibody was examined, 200 μL of 0.2 vol % FBS/RPMI 1640 comprising FGF-8 (100 ng/mL) (0 group) or 0.2 vol % FBS/RPMI 1640 comprising FGF-8 (100 ng/mL) and anti-FGF-8 neutralizing antibody KM1334 (0.1, 0.3, 1, 3 or 10 μg/ml) was added to each well. After 48 hours of the culturing, 9.25 kBq per well of [^3H]thymidine was added. The culturing was further performed for 24 hours, and the radioactivity of [^3H]thymidine incorporated in the cells was measured using a liquid scintillation counter (1205 Beta Plate, manufactured by Perkin Elmer Life Science Japan). Six experiments were performed for each condition, and the mean values and the standard error were calculated.

[1] = test system: knee joint of Sprague-Dawley rats; assay: Induction of arthritis by intraarticular injection of FGF-8; assay type: in vivo, rat; settings: 50 μL of 1 mg/mL FGF-8 into knee joint of rats, after 3 days
Experimental: Arthritis-like phenotypes were induced in Sprague-Dawley rats (male, 7 weeks old, Japan Charles River) using FGF-8 in the following manner. Fifty μL of FGF-8 solution prepared with saline(manufactured by Otsuka Seiyaku Kojo) to a final concentration of 1 mg/mL was injected into the each knee joint of rats. Further, a group that injected 50 μL of saline into the knee joint was also prepared. One group consisted of 3 rats. After 3 days from the injection of FGF-8 or saline, the inside of the knee articular capsule was washed with 30 μL of saline comprising 0.38 w/v % sodium citrate to collect the lavage fluid, according to the method of Yamada et al (Yamada A. et al., Inflamm. Res., 49, 144-146, 2000). This procedure was repeated ten times to recover 300 μL of the joint lavage fluid. The amount of glycosaminoglycan in the joint lavage fluid was measured by the DMMB method described in Example 1. The patella of the knee joint was isolated, and the cartilaginous portion was digested with papain by the method described in Example 1 to measure the […].

[2] = test system: rabbit articular chondrocytes; assay: Degradation of extracellular matrix of rabbit chondrocytes with FGF-8; assay type: cell-based; settings: 48 hours, FGF-8 1, 10 or 100 ng/mL tested
Experimental: Rabbit articular chondrocytes were isolated from both knees and shoulders of 3-week-old New Zealand white female rabbits and cultured according to the method of Tamura et al. (Tamura T. et al., Eur. J. Pharmacol., 419, 269-274, 2001). That is, the joints of both knees and the joints of both shoulders were isolated to collect the epiphyseal cartilages. […] The culture solution was removed, and the amount of glycosaminoglycan in extracellular matrix remaining on the plate was measured by the dimethymethylene blue (DMMB) method (Chandrasekhar S. et al., Anal. Biochem. 161 103-108, 1987). […] To 75 μL of this digested solution were added 25 μL of a guanidine hydrochloride buffer (2.88 mol/L guanidine hydrochloride, 50 mmol/L sodium acetate, pH 6.8) and 200 μL of a DMMB solution, and the absorbance was measured at 530/590 nm. The concentration of glycosaminoglycan of each sample was calculated from the absorbance of chondroitin sulfate (derived from whale cartilages, manufactured by Seikagaku Kogyo) used as a standard. Three experiments were performed for each condition and the mean values and the standard error were calculated.

[3] = test system: rabbit articular chondrocytes; assay: Promotion of production of matrix metalloproteinase-3 from rabbit chondrocytes with FGF-8; assay type: cell-based; settings: 48 hours
Experimental: Rabbit articular chondrocytes were isolated and cultured by the method described in Example 1. After the chondrocytes became confluent, the culture solution was replaced with 0.5 vol % FBS/DMEM, followed by the culturing for 24 hours. The culture solution was removed, and 1 mL of 0.5 vol % FBS/DMEM (non-stimulated group), 0.5 vol % FBS/DMEM comprising FGF-8 (100 ng/mL)(0 group) or 0.5 vol % FBS/DMEM comprising FGF-8 (100 ng/mL) and anti-FGF-8 neutralizing antibody KM1334 (1, 3 or 10 μg/mL) was added, followed by the culturing for 48 hours. After 48 hours, the culture medium was recovered, the matrix metalloproteinase-3 concentration in the culture medium was measured using rabbit matrix metalloproteinase-3 ELISA system (manufactured by Amersham Biosciences). Three experiments were performed for each condition, and the mean values and the standard error were calculated.

[4] = test system: human synovial cells derived from the rheumatoid arthritis patient; assay: Promotion of growth of human synovial cells with FGF-8 ([3H]thymidine incorporation); assay type: cell-based; settings: FGF-8 10, 100 or 500 ng/mL tested
Experimental: as §1, with “When the activity of the anti-FGF-8 neutralizing antibody was examined, 200 μL of 0.2 vol % FBS/RPMI 1640 comprising FGF-8 (100 ng/mL) (0 group) or 0.2 vol % FBS/RPMI 1640 comprising FGF-8 (100 ng/mL) and anti-FGF-8 neutralizing antibody KM1334 (0.1, 0.3, 1, 3 or 10 μg/ml) was added to each well. After 48 hours of the culturing, 9.25 kBq per well of [^3H]thymidine was added.” left out
The same experiment as in Example 3 was performed using human synovial cells derived from the rheumatoid arthritis patient (procured from Toyobo). […] Six experiments were performed for each condition, and the mean values and the standard error were calculated.

B1: FGF-8: fibroblast growth factor FGF-8, androgen-induced growth factor; manufactured by Peprotech (protein, UniProt P55075 23-233, looked up)
Fibroblast growth factor 8: QEGPGRGPALGRELASLFRAGREPQGVSQQHVREQSLVTDQLSRRLIRTYQLYSRTSGKHVQVLANKRINAMAEDGDPFAKLIVETDTFGSRVRVRGAETGLYICMNKKGKLIAKSNGKGKDCVFTEIVLENNYTALQNAKYEGWYMAFTRKGRPRKGSKTRQHQREVHFMKRLPRGHHTTEQSLRFEFLNYPPFTRSLRGSQRTWAPEPR
- concentration at which FGF-8 significantly promoted the incorporation of [3H]thymidine into the rabbit synovial cells (rabbit synovial cells): 100 ng/mL
- concentration of glycosaminoglycan in the joint lavage fluid relative to the saline injected group [1]: 1.9 times
- weight of the patella after papain digestion relative to the saline injected group [1]: 40%
- concentration at which FGF-8 significantly decreased the residual amount of glycosaminoglycan in extracellular matrix [2]: 100 ng/mL
- concentration at which FGF-8 significantly increased the production of matrix metalloproteinase-3 from the chondrocytes [3]: 100 ng/mL
- concentration at which FGF-8 significantly promoted the incorporation of [3H]thymidine into the human synovial cells [4]: 500 ng/mL
